Data as given in US20250297004A1, “NECTIN-4 BINDING AGENTS” (INNATE PHARMA, priority 2022, published 2025).
Changes are numbered by the printed parent chain. One block for each molecule: values may come before it.

Columns and labels:
[1] = biological target: human Nectin-4 (protein used in the SPR affinity measurements) (human) (UniProt Q96NY8); assay: SPR, human IgG1
[2] = biological target: T1, human Nectin-4 expressed on cells (human, UniProt Q96NY8 32-510); assay: flow cytometry on SUM190 cells, MedFI at saturation
T1 construct: On SUM190, SUM185, MDA-MB-468 cells (endogenous) or transfected cells; 31-residue signal peptide left out; also called huN4; wild-type human Nectin-4
T1 sequence: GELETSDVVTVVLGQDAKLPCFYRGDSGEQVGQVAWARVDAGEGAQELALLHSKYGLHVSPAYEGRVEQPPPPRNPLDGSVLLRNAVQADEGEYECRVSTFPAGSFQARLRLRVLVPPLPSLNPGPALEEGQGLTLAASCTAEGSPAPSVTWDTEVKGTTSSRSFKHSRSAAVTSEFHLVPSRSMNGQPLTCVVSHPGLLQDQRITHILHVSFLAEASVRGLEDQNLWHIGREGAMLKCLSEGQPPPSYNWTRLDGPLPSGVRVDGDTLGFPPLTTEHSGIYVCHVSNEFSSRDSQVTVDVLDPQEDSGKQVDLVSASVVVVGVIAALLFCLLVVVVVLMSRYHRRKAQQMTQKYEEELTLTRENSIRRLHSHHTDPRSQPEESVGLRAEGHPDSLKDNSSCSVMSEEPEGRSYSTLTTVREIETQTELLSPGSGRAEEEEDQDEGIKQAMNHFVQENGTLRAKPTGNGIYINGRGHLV
Experimental: The humanized antibodies in Table 3 of Example 3 and in Table 6 of Example 5 were cloned, produced and purified, then tested for binding to Nectin-4 expressing cells by flow cytometry. Binding of humanized variants in human IgG1 format was determined on the SUM190 cell line expressing high levels of Nectin-4.

[3] = biological target: T1, human Nectin-4 expressed on cells; assay: cell-based or functional assay
human Nectin-4 = biological target: T2, human Nectin-4 (Homo sapiens, UniProt Q96NY8); assay: Binding to human Nectin-4 by SPR; conditions: for ka: SPR association constant; for kd: SPR dissociation constant; for Kd: SPR, human IgG1 isotype antibodies
T2 sequence (Q96NY8 32-510): T1 sequence
Experimental: (§1) The antibodies in Table 3 of Example 3 were cloned as human IgG1 isotype antibodies, produced and purified, then tested for binding to human Nectin-4. Affinity of the 16 humanized variants, as well as their association and dissociation constants were assessed by SPR analysis. Table 4 summarizes all the calculated constants (Affinity constant KD (nM), association constant ka (1/Ms) and dissociation constant kd (1/s)).
as §1, with “Table 6” for “Table 3”, “Example 5” for “Example 3”, “Table 7” for “Table 4”

[4] = biological target: T1, human Nectin-4 expressed on cells; assay: cell-based or functional assay; remark: listed apart in the source

B1: H4L1 (antibody, human IgG1, V domains shown)
VH: QVQLVQSGAEVKKPGASVKVSCKASGYIFTSYWMHWVKQAPGQGLEWMGEIDPSDSYTNYNQKFKGRVTMTLDKSTSTTYMELSSLRSEDTAVYYCARGYGNYGDYWGQGTLVTVSS
VL: DVVMTQSPLSLPVTPGEPASISCRSSKSLLHSNGITYLYWYLQKPGQSPQLLIYQMSNLASGVPDRFSSSGSGTDFTLKISRVEAEDVGVYYCAQNLELPWTFGGGTKVEIK
notes: human IgG1 isotype
Kd [1]: 19.5 nM
koff [1]: 0.0059 s⁻¹
kon [1]: 310000 M⁻¹ s⁻¹
Max MedFi [2]: 18400 MedFI
internalization efficiency on SUM190, normalized to chimeric parental antibody (Fab-ZAP, CTG), experiment 1 [3]: 73.5 % of chimeric parental
internalization efficiency on SUM190, normalized to chimeric parental antibody (Fab-ZAP, CTG), experiment 2 [3]: 72.6 % of chimeric parental
ka (human Nectin-4; second set (Table 7)): 310000 ± 30000 M⁻¹ s⁻¹
kd (human Nectin-4; second set (Table 7)): 0.0059 ± 0.0003 s⁻¹
Kd (human Nectin-4; second set (Table 7)): 19.5 ± 0.8 nM
internalization efficiency on MDA-MB-468, normalized to chimeric parental antibody (Fab-ZAP, CTG), first column [4]: 31 % of chimeric parental
internalization efficiency on MDA-MB-468, normalized to chimeric parental antibody (Fab-ZAP, CTG), second column [4]: 31 % of chimeric parental

B2: H5L3 (antibody, human IgG1, kappa, V domains shown)
VH: B1 VH with A40R
VL: DVVMTQSALSNPVTPGEPASISCRSSKSLLHSNGITYLYWYLQKPGQSPQLLIYQMSNLASGVPDRFSSSGSGTDFTLKISRVEAEDVGVYYCAQNLELPWTFGGGTKVEIKR
notes: Tested as human IgG1
Kd [1]: 21.5 nM
koff [1]: 0.0053 s⁻¹
kon [1]: 250000 M⁻¹ s⁻¹
Max MedFi [2]: 27100 MedFI
internalization efficiency on SUM190, normalized to chimeric parental antibody (Fab-ZAP, CTG), experiment 1 [3]: 82.8 % of chimeric parental
internalization efficiency on SUM190, normalized to chimeric parental antibody (Fab-ZAP, CTG), experiment 2 [3]: 74.9 % of chimeric parental
internalization efficiency on MDA-MB-468, normalized to chimeric parental antibody (Fab-ZAP, CTG), first column [4]: 87.8 % of chimeric parental
internalization efficiency on MDA-MB-468, normalized to chimeric parental antibody (Fab-ZAP, CTG), second column [4]: 87.8 % of chimeric parental

B4: H5L1 (antibody, human IgG1, V domains shown)
VH: B1 VH with A40R
VL: B1 VL
notes: human IgG1 isotype
Kd [1]: 24.5 nM
koff [1]: 0.0056 s⁻¹
kon [1]: 230000 M⁻¹ s⁻¹
Max MedFi [2]: 18300 MedFI
internalization efficiency on SUM190, normalized to chimeric parental antibody (Fab-ZAP, CTG), experiment 1 [3]: 71.5 % of chimeric parental
internalization efficiency on SUM190, normalized to chimeric parental antibody (Fab-ZAP, CTG), experiment 2 [3]: 52.4 % of chimeric parental
ka (human Nectin-4; second set (Table 7)): 230000 M⁻¹ s⁻¹
kd (human Nectin-4; second set (Table 7)): 0.0056 s⁻¹
Kd (human Nectin-4; second set (Table 7)): 24.5 nM
internalization efficiency on MDA-MB-468, normalized to chimeric parental antibody (Fab-ZAP, CTG), first column [4]: 33.4 % of chimeric parental
internalization efficiency on MDA-MB-468, normalized to chimeric parental antibody (Fab-ZAP, CTG), second column [4]: 33.4 % of chimeric parental

Now from value to molecule:

Kd [1]: 67.3 nM
koff [1]: 0.0072 s⁻¹
kon [1]: 110000 M⁻¹ s⁻¹
Max MedFi [2]: 17300 MedFI
internalization efficiency on SUM190, normalized to chimeric parental antibody (Fab-ZAP, CTG), experiment 1 [3]: 83.7 % of chimeric parental
internalization efficiency on SUM190, normalized to chimeric parental antibody (Fab-ZAP, CTG), experiment 2 [3]: 58.6 % of chimeric parental
ka (human Nectin-4; first set (Table 4)): 110000 M⁻¹ s⁻¹
kd (human Nectin-4; first set (Table 4)): 0.0072 s⁻¹
Kd (human Nectin-4; first set (Table 4)): 67.3 nM
internalization efficiency on MDA-MB-468, normalized to chimeric parental antibody (Fab-ZAP, CTG), first column [4]: -7.4 % of chimeric parental
internalization efficiency on MDA-MB-468, normalized to chimeric parental antibody (Fab-ZAP, CTG), second column [4]: -7.4 % of chimeric parental
B3: H1L0 (antibody, human IgG1, V domains shown)
VH: B1 VH with I28T, K38R, K74T
VL: B1 VL with V2I, S69G
notes: human IgG1 isotype

Kd [1]: 27 nM
koff [1]: 0.007 s⁻¹
kon [1]: 260000 M⁻¹ s⁻¹
Max MedFi [2]: 23800 MedFI
internalization efficiency on SUM190, normalized to chimeric parental antibody (Fab-ZAP, CTG), experiment 1 [3]: 65.3 % of chimeric parental
internalization efficiency on SUM190, normalized to chimeric parental antibody (Fab-ZAP, CTG), experiment 2 [3]: 59.6 % of chimeric parental
ka (human Nectin-4; first set (Table 4)): 260000 M⁻¹ s⁻¹
kd (human Nectin-4; first set (Table 4)): 0.007 s⁻¹
Kd (human Nectin-4; first set (Table 4)): 27 nM
internalization efficiency on MDA-MB-468, normalized to chimeric parental antibody (Fab-ZAP, CTG), first column [4]: 43.8 % of chimeric parental
internalization efficiency on MDA-MB-468, normalized to chimeric parental antibody (Fab-ZAP, CTG), second column [4]: 43.8 % of chimeric parental
B5: H3L3 (antibody, human IgG1, V domains shown)
VH: B1 VH with K38R
VL: B1 VL with P8A, L11N
notes: human IgG1 isotype

Kd [1]: 22 nM
koff [1]: 0.0087 s⁻¹
kon [1]: 400000 M⁻¹ s⁻¹
Max MedFi [2]: 17200 MedFI
internalization efficiency on SUM190, normalized to chimeric parental antibody (Fab-ZAP, CTG), experiment 1 [3]: 82.1 % of chimeric parental
internalization efficiency on SUM190, normalized to chimeric parental antibody (Fab-ZAP, CTG), experiment 2 [3]: 41 % of chimeric parental
ka (human Nectin-4; first set (Table 4)): 400000 ± 30000 M⁻¹ s⁻¹
kd (human Nectin-4; first set (Table 4)): 0.0087 ± 0.0004 s⁻¹
Kd (human Nectin-4; first set (Table 4)): 22 ± 0.4 nM
internalization efficiency on MDA-MB-468, normalized to chimeric parental antibody (Fab-ZAP, CTG), first column [4]: 48.2 % of chimeric parental
internalization efficiency on MDA-MB-468, normalized to chimeric parental antibody (Fab-ZAP, CTG), second column [4]: 48.2 % of chimeric parental
B6: H3L1 (antibody, human IgG1, V domains shown)
VH: B1 VH with K38R
VL: B1 VL
notes: human IgG1 isotype
